Assay results published in patent US20040229250A1 (SHIRE HUMAN GENETIC THERAPIES, published 2004).

Tests used:
[1] = biological target: T1, 23mer peptide P23 (MTDFYVPVSLCTPSRAALLTGRS)
T1 chain: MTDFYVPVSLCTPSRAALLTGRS

[2] = biological target: T2, Formylglycine Generating Enzyme (FGE) purified from bovine testis microsomes (reticuloplasm) (bovine, UniProt Q0P5L5 34-374, N-glycosylated (bound to Concanavalin A)); experiment: affinity chromatography, peptide on Affigel 10, FGE from bovine testis
T2 construct: mature; Native enzyme at several stages of purification (microsome extract, MonoQ pool, ConA eluate); also called bovine FGE; FGE activity
T2 sequence (looked up): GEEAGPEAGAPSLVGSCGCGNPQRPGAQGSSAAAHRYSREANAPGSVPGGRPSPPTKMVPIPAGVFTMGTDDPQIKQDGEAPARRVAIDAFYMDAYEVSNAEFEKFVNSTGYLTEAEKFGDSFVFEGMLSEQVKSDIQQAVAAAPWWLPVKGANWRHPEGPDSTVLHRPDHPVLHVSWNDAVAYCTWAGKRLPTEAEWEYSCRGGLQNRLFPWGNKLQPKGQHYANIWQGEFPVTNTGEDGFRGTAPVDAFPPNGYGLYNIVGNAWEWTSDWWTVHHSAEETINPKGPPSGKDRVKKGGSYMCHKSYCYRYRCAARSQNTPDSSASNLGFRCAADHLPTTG
Text: (§1) For purification of FGE the soluble fraction (reticuloplasm) of bovine testis microsomes served as the starting material. The specific activity of FGE was 10-20 times higher than that in reticuloplasm from bovine pancreas microsomes (Fey et al., J. Biol. Chem., 2001, 276:47021-47028). Purification of FGE was achieved by a combination of four chromatographic steps. The first two steps were chromatography on a MonoQ anion exchanger and on Concanavalin A-Sepharose. At pH 8 the FGE activity bound to MonoQ and was eluted at 50-165 mM NaCl with 60-90% recovery. When this fraction was mixed with Concanavalin A-Sepharose, FGE was bound. 30-40% of the starting activity could be eluted with 0.5 M a-methyl mannoside. The two final purification steps were chromatography on affinity matrices derivatized with 16mer peptides. The first affinity matrix was Affigel 10 substituted with a variant of the ASA65-80 peptide, in which residues Cys69, Pro7l and Arg73, critical for FGly formation, were scrambled (scrambled peptide […] -SEQ ID NO:34). […] Chromatography on the scrambled peptide affinity matrix removed peptide binding proteins including chaperones of the endoplasmic reticulum. The second affinity matrix was Affigel 10 substituted with a variant of the ASA65-80 peptide, in which the Cys69 was replaced by a serine (Ser69 peptide […]-SEQ ID NO:35).

[3] = biological target: T2, Formylglycine Generating Enzyme (FGE) …; experiment: affinity chromatography on peptide-derivatized Affigel 10, FGE activity from bovine testis
Text: as §1

B1: Formylglycine Generating Enzyme (FGE) purified from bovine testis microsomes (reticuloplasm) (protein)
chain: T2 sequence (looked up)
**Q.** What does the source list for B1?
**A.** conversion of P23 into a FGly containing derivative (MALDI-TOF) [1]: converted up to 95% of the peptide into a FGly containing derivative; km [1]: The km for P23 was 13 nM

B2: wildtype ASA65-80 peptide (synthetic 16mer corresponding to arylsulfatase A residues 65-80) (peptide)
peptide: PVSLCTPSRAALLTGR
notes: They follow from P23 and from the Ser69 peptide, which is the Cys69 to Ser variant
**Q.** Does B2 bind [2]?
**A.** Result: binds

B3: Ser69 peptide PVSLSTPSRAALLTGR (peptide)
peptide: PVSLSTPSRAALLTGR
notes: also called Ser69 oligopeptide; variant of the ASA65-80 peptide in which Cys69 was replaced by a serine
**Q.** Does B3 bind [2]?
**A.** Result: binds

B4: scrambled peptide PVSLPTRSCAALLTGR (peptide)
peptide: PVSLPTRSCAALLTGR
notes: also called scrambled oligopeptide; variant of the ASA65-80 peptide in which residues Cys69, Pro71 and Arg73 were scrambled
**Q.** Does B4 bind [3]?
**A.** Result: no binding
